B1: C9orf9 (parent)
chain: LTKASLKPRGCSKPPWRPPGGKL

Variants of: B1
Experiment: protein stability index of a GFP-peptide fusion (GPS, HEK-293T) (PSI 1-6); higher = more stable
Settings: c terminus: native
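Note: lentivirally expressed fusions sorted by FACS into six bins by GFP to DsRed ratio, PSI derived from sequencing read proportions per bin multiplied by bin number.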

| Variant | protein stability index |
| --- | --- |
| LTKASLKPRGCSKPPWRPPGGKW [L23W] | 1.03 |
| LTKASLKPRGCSKPPWRPPGGKC [L23C] | 1.68 |
| LTKASLKPRGCSKPPWRPPGGKR [L23R] | 3.08 |
| LTKASLKPRGCSKPPWRPPGGKP [L23P] | 3.08 |
| LTKASLKPRGCSKPPWRPPGGKN [L23N] | 1.92 |
| LTKASLKPRGCSKPPWRPPGGKY [L23Y] | 2.13 |
| LTKASLKPRGCSKPPWRPPGGKM [L23M] | 2.1 |
| LTKASLKPRGCSKPPWRPPGGKQ [L23Q] | 2.91 |
| LTKASLKPRGCSKPPWRPPGGKF [L23F] | 1.24 |
| LTKASLKPRGCSKPPWRPPGGKH [L23H] | 2.48 |
| LTKASLKPRGCSKPPWRPPGGQL [K22Q] | 3.53 |
| LTKASLKPRGCSKPPWRPPGGNL [K22N] | 3.08 |
| LTKASLKPRGCSKPPWRPPGGSL [K22S] | 2.67 |
| LTKASLKPRGCSKPPWRPPGGYL [K22Y] | 3.71 |
| LTKASLKPRGCSKPPWRPPGGVL [K22V] | 4.26 |

Source: the supplement of paper PMC10567573
